Results taken from patent publication US20140105889A1 (published 2014).
Where a chain is given by its changes, count along the chain named. Names may count otherwise. Like-named read-outs stand apart in the source and are kept apart here. Each block holds one binder with its values, some of them ahead of it.

Tests used:
mouse FcγRIV [1] = molecular target: T1, mouse FcγRIV (mouse); experiment: SPR (Biacore), antibody captured on Protein L, mouse FcγR as analyte, pH 7.4, 25 C
T1 construct: Bought soluble receptor; also called mFcgRIV; mFcgR IV
T1 sequence (A0A0B4J1G0 21-203): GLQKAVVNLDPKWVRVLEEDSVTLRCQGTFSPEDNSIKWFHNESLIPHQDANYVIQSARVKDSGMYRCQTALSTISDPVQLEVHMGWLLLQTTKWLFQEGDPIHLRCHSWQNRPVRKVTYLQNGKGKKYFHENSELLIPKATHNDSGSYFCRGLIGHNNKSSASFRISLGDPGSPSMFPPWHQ

mouse FcγRIV [2] = molecular target: T1, mouse FcγRIV; experiment: SPR (Biacore), antibody captured on Protein L, mouse FcγR as analyte, pH 7.4, 25 C (method of Example 4, RU)
human FcγRIIIa(F) [3] = molecular target: T2, human FcγRIIIa(F) (human, UniProt P08637 17-208, limits assumed); experiment: SPR (Biacore), antibody captured on Protein L, human FcγR as analyte, pH 7.4, 25 C
T2 construct: also called hFcgRIIIa(F); hFcgRIIIa

human FcγRIIIa(F) [4] = molecular target: T2, human FcγRIIIa(F); experiment: as above; remark: listed apart in the source
human FcRn [5] = molecular target: T3, human FcRn (human); experiment: SPR (Biacore), pH 7.0, 25 C; antibody captured on Protein L, human FcRn injected
T3 construct: Soluble human FcRn complexed with beta2-microglobulin; also called hFcRn; soluble human FcRn complexed with β2-microglobulin

[6] = molecular target: T4, human FcRn (soluble human FcRn complexed with β2-microglobulin) (human, UniProt P61769 21-119); experiment: Biacore SPR, pH 7.0, 25 C; antibody captured by Protein L, human FcRn as analyte
T4 construct: also called hFcRn

human FcRn [7] = molecular target: T3, human FcRn; experiment: SPR (Biacore), pH 7.0, 25 C; antibody captured on Protein L, human FcRn injected; remark: listed apart in the source
[8] = molecular target: T5, human FcRn (soluble human FcRn complexed with β2-microglobulin) (human, UniProt P61769 21-119); experiment: SPR (Biacore), Protein L capture, hFcRn analyte, pH 7.0
T5 construct: also called hFcRn

human FcRn [9] = molecular target: T6, human FcRn (human); experiment: SPR (Biacore), antibody captured by Protein L, human FcRn as analyte, pH 7.0
T6 construct: Soluble human FcRn complexed with β2-microglobulin; also called hFcRn; soluble human FcRn complexed with β2-microglobulin

[10] = molecular target: T7, human FcRn (soluble human FcRn complexed with beta2-microglobulin) (human, UniProt P61769 21-119); experiment: SPR (Biacore), pH 7.0, 25 C, antibody captured by Protein L, human FcRn as analyte
T7 construct: also called hFcRn

human FcRn [11] = molecular target: T6, human FcRn; experiment: SPR (Biacore), antibody captured by Protein L, human FcRn as analyte, pH 7.0; remark: listed apart in the source
[12] = molecular target: T5, human FcRn (soluble human FcRn …); experiment: SPR (Biacore), Protein L capture, hFcRn analyte, pH 7.0; remark: listed apart in the source
human FcRn [13] = molecular target: T8, human FcRn (human); experiment: SPR (Biacore), pH 7.0, 25 C, antibody captured by Protein L, human FcRn as analyte
T8 construct: also called hFcRn; soluble human FcRn complexed with β2-microglobulin

human FcγRIIIa(F) [14] = molecular target: T9, human FcγRIIIa(F) (human, UniProt P08637 17-208, limits assumed); experiment: SPR (Biacore T100), antibody captured by Protein A, FcγR as analyte, HBS-EP+, 25°C, 1:1 Langmuir global fit
T9 construct: also called FcgRIIIaF; hFcgRIIIa(F)

human FcγRIIIa(F) [15] = molecular target: T9, human FcγRIIIa(F); experiment: SPR (Biacore T100), ratio of the KD values of Table 24, reference IgG1 (IL6R-G1d/IL6R-L)
human FcγRIIIa(F) [16] = molecular target: T9, human FcγRIIIa(F); experiment: SPR (Biacore T100), antibody captured by Protein A, FcγR as analyte, 25°C; weak binding, KD calculated by Equation 5 (1:1 binding model)

B1: antibody with VH3-IgG1-F947 heavy chain and L(WT)-CK light chain (antibody)
heavy: QVQLQESGPGLVKPSETLSLTCAVSGHSISHDHAWSWVRQPPGEGLEWIGFISYSGITNYNPSLQGRVTISRDNSKNTLYLQMNSLRAEDTAVYYCARSLARTTAMDYWGEGTLVTVSSASTKGPSVFPLAPSSKSTSGGTAALGCLVKDYFPEPVTVSWNSGALTSGVHTFPAVLQSSGLYSLSSVVTVPSSSLGTQTYICNVNHKPSNTKVDKKVEPKSCDKTHTCPPCPAPELLGGPSVFLFPPKPKDVLYISRTPEVTCVVVDVSHEDPEVKFNWYVDGVEVHNAKTKPREEQYNSTYRVVSVLQPLHADWLNGKEYKCKVSNKALPAPIEKTISKAKGQPREPQVYTLPPSRDELTKNQVSLTCLVKGFYPSDIAVEWESNGQPENNYKTTPPVLDSDGSFFLYSKLTVDKSRWQQGNVFSCSVMHEALHYHVTQKSLSLSP
light: not shown
notes: copies: 2 + 2
- BINDING AMOUNT (RU) (mouse FcγRIV [1]): 242 RU
- BINDING AMOUNT (mouse FcγRIV [2]): 279

B2: VH3/L(WT)-IgG1-F698 (antibody, name in EU numbering)
heavy: B1 heavy with V252T, N288E, P310V, V438Y
light: not shown
notes: The positions are EU numbering, not positions on the entry; copies: 2 + 2
- BINDING AMOUNT (RU) (human FcγRIIIa(F) [3]): 55.9 RU
- BINDING AMOUNT (RU) (human FcγRIIIa(F) [4]): 55.9 RU

B5: IgG1-F197 (antibody, name in EU numbering)
heavy: B1 heavy with V252T, Y254M, P259T, P310V, A313Q, M430L, V438Y
light: not shown
notes: VH3-IgG1 Fc variant; EU numbering
- Kd [6]: 33 nM

B6: IgG1-F770 (antibody)
heavy: B1 heavy with V252T, T258A, Q309T, P310V, A313Q, V438Y
light: not shown
notes: Substitutions by EU numbering; copies: 2 + 2
- Kd (human FcRn [7]): 300 nM

B7: IgG1-F755 (antibody)
heavy: B1 heavy with P240D, V252S, Q309T, P310V, A313Q, V438Y
light: not shown
notes: as for B6
- Kd (human FcRn [7]): 350 nM

B8: IgG1-F462 (antibody, name in EU numbering)
heavy: B1 heavy with V252T, Y254M, P259A, Q309T, A313Q, N327G, M430L, V438Y
light: not shown
notes: copies: 2 + 2
- Kd [8]: 85 nM

B12: IgG1-F1014 (antibody, name in EU numbering)
heavy: B1 heavy with L237R, S241K, V438Y
light: not shown
- Kd [10]: 32 nM

B14: IgG1-F185 (antibody, name in EU numbering)
heavy: B1 heavy with V252T, Y254W, Q309T, P310V, A313Q, I334V, V438Y
light: not shown
notes: as for B5
- Kd [6]: 260 nM

B17: IgG1-F492 (antibody, name in EU numbering)
heavy: B1 heavy with V252T, Y254M, P259V, V307A, Q309A, P310V, A313Q, N327G, M430L, V438Y
light: not shown
notes: copies: 2 + 2
- Kd [12]: 98 nM

B19: IgG1-F1289 (antibody, name in EU numbering)
heavy: B1 heavy with L237R, S241K, V252T, T258E, Q309T, P310V, A313Q, H435D, Q440R, S442E
light: not shown
notes: light chain L(WT)-CK; copies: 2 + 2
- Kd (human FcRn [9]): 133 nM

B22: IgG1-F527 (antibody, name in EU numbering)
heavy: B1 heavy with V252T, Y254M, P259V, A313Q, N327G, M430Y, V438Y
light: not shown
notes: copies: 2 + 2
- Kd [12]: 9.4 nM

B23: IgG1-F791 (antibody)
heavy: B1 heavy with V252T, Q309T, P310V, A313Q, N317F, V438Y
light: not shown
notes: as for B6
- Kd (human FcRn [5]): 440 nM

B24: IgG1-F1017 (antibody)
heavy: B1 heavy with L237R, S241K, N288E
light: not shown
- Kd [10]: 4.2 nM

B25: IgG1-F445 (antibody, name in EU numbering)
heavy: B1 heavy with V252T, Y254M, P259A, P310V, A313H, M430L, V438Y
light: not shown
notes: copies: 2 + 2
- Kd [8]: 62 nM

B26: F1211 (antibody, human IgG1, kappa, name in EU numbering)
heavy: B1 heavy with V252T, L253H, Q309T, P310V, A313Q
light: not shown
notes: copies: 2 + 2
- Kd (human FcRn [13]): 1230 nM

B27: IgG1-F529 (antibody, name in EU numbering)
heavy: B1 heavy with V252T, Y254M, P259T, P310V, A313Q, M430F, V438Y
light: not shown
notes: copies: 2 + 2
- Kd [12]: 25 nM

B28: IgG1-F1335 (antibody, name in EU numbering)
heavy: B1 heavy with L237R, G238R, S241K, V252T, S256T, Q309T, P310V, A313Q, Q440K, S442D
light: not shown
notes: as for B19
- Kd (human FcRn [11]): 87.8 nM

B30: IgG1 (IL6R-G1d / IL6R-L) (antibody)
heavy: not shown
light: DIQMTQSPSSLSASVGDRVTITCRASQDISSYLNWYQQKPGKAPKLLIYYTSRLHSGVPSRFSGSGSGTDFTFTISSLQPEDIATYYCQQGNTLPYTFGQGTKVEIK
notes: Anti-human IL-6 receptor antibody; G1d constant region (IgG1 without C-terminal Gly and Lys); L chain of tocilizumab
- Kd (human FcγRIIIa(F) [14]): 3100 nM

B31: IgG1-v3 (IL6R-G1d_v3 / IL6R-L) (antibody)
heavy: not shown
light: B30 light
notes: IL6R-G1d with S267E/L328F (EU numbering)
- relative KD (KD of IgG1 / KD of the variant) (human FcγRIIIa(F) [15]): 0.35 fold
- Kd (human FcγRIIIa(F) [14]): 8800 nM

B32: IgG1-v1 (IL6R-G1d_v1 / IL6R-L) (antibody)
heavy: not shown
light: B30 light
notes: IL6R-G1d with P238D (EU numbering)
- relative KD (KD of IgG1 / KD of the variant) (human FcγRIIIa(F) [15]): 0.061 fold
- Kd (human FcγRIIIa(F) [16]): 51000 nM

Next, values leading:

- BINDING AMOUNT (RU) (human FcγRIIIa(F) [4]): -2 RU
B3: VH3/L(WT)-IgG1-F699 (antibody, name in EU numbering)
heavy: B1 heavy with S241K, V252T, N288E, P310V, V438Y
light: not shown
notes: as for B2

- Kd (human FcRn [5]): 330 nM
B4: IgG1-F802 (antibody)
heavy: B1 heavy with V252T, Q309T, P310V, A313Q, N317V, V438Y
light: not shown
notes: as for B6

- BINDING AMOUNT (mouse FcγRIV [2]): 85.6
B9: antibody with VH3-IgG1-F1326 heavy chain and L(WT)-CK light chain (antibody)
heavy: B1 heavy with L236A, L237A
light: not shown
notes: copies: 2 + 2

- Kd (human FcRn [9]): 79.5 nM
B10: IgG1-F1288 (antibody, name in EU numbering)
heavy: B1 heavy with L237R, S241K, V252T, T258E, Q309T, P310V, A313Q, Q440K, S442D
light: not shown
notes: as for B19

- Kd (human FcRn [9]): 169 nM
B11: IgG1-F1311 (antibody, name in EU numbering)
heavy: B1 heavy with L237R, S241K, V252T, Q309T, P310V, A313Q, V424A, S426A, H435D
light: not shown
notes: as for B19

- BINDING AMOUNT (RU) (human FcγRIIIa(F) [3]): -2.9 RU
B13: VH3/L(WT)-IgG1-F763 (antibody, name in EU numbering)
heavy: B1 heavy with L237R, S241K, V252T, N288E, P310V, V438Y
light: not shown
notes: as for B2

- Kd [10]: 340 nM
B15: IgG1-F1019 (antibody, name in EU numbering)
heavy: B1 heavy with P240D, Q309T, P310V, A313Q, N327G, V438Y
light: not shown

- Kd (human FcRn [11]): 55.8 nM
B16: IgG1-F1340 (antibody, name in EU numbering)
heavy: B1 heavy with L237R, S241K, V252T, S256T, T258E, Q309T, P310V, A313Q, Q440K, S442E
light: not shown
notes: as for B19

- Kd [8]: 520 nM
B18: IgG1-F450 (antibody, name in EU numbering)
heavy: B1 heavy with S241K, V252T, Q309P, P310V, L311E, A313Q, N327G, M430Y, V438Y
light: not shown
notes: copies: 2 + 2

- Kd (human FcRn [13]): 127 nM
B20: F1192 (antibody, name in EU numbering)
heavy: B1 heavy with V252T, Q309T, P310V, A313Q, T439G, Q440R, S442E
light: not shown
notes: copies: 2 + 2

- Kd (human FcRn [11]): 251 nM
B21: IgG1-F1339 (antibody, name in EU numbering)
heavy: QVQLQESGPGLVKPSETLSLTCAVSGHSISHDHAWSWVRQPPGEGLEWIGFISYSGITNYNPSLQGRVTISRDNSKNTLYLQMNSLRAEDTAVYYCARSLARTTAMDYWGEGTLVTVSSASTKGPSVFPLAPSSKSTSGGTAALGCLVKDYFPEPVTVSWNSGALTSGVHTFPAVLQSSGLYSLSSVVTVPSSSLGTQTYICNVNHKPSNTKVDKKVEPKSCDKTHTCPPCPAPELRGGPKVFLFPPKPKDTLYITREPEVTCVVVDVSHEDPEVKFNWYVDGVEVHNAKTKPREEQYNSTYRVVSVLTVLHQDWLNGKEYKCKVSNKALPAPIEKTISKAKGQPREPQVYTLPPSRDELTKNQVSLTCLVKGFYPSDIAVEWESNGQPENNYKTTPPVLDSDGSFFLYSKLTVDKSRWQQGNVFSCSVMHEALDYHTTKKELSLSP
light: not shown
notes: as for B19

- Kd (human FcRn [13]): 157 nM
B29: F1189 (antibody, name in EU numbering)
heavy: B21 heavy with R237L, K241S, T256S, E258T, T438V, K440R
light: not shown
notes: copies: 2 + 2

- relative KD (KD of IgG1 / KD of the variant) (human FcγRIIIa(F) [15]): 0.14 fold
- Kd (human FcγRIIIa(F) [16]): 23000 nM
B33: IgG1-v2 (IL6R-G1d_v2 / IL6R-L) (antibody)
heavy: not shown
light: B30 light
notes: IL6R-G1d with L328E (EU numbering)
